Source: a protein production outcome set (Wang et al. 2014)

Assay: label from the status in PepcDB records
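Also: failed if final PepcDB status was selected cloned or expressed and not failed if soluble or beyond.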

| Sequence | protein production |
| --- | --- |
| MSVPAIAPRRKRLADGLSVTQKVFVRSRNGGATKIVREHYLRSDIPCLSRSCTKCPQIVVPDAQNELPKFILSDSPLELSAPIGKHYVVLDTNVVLQAIDLLENPNCFFDVIVPQIVLDEVRNKSYPVYTRLRTLCRDSDDHKRFIVFHNEFSEHTFVERLPNETINDRNDRAIRKTCQWYSEHLKPYDINVVLVTNDRLNREAATKEVESNIITKSLVQYIELLPNADDIRDSIPQMDSFDKDLERDTFSDFTFPEYYSTARVMGGLKNGVLYQGNIQISEYNFLEGSVSLPRFSKPVLIVGQKNLNRAFNGDQVIVELLPQSEWKAPSSIVLDSEHFDVNDNPDIEAGDDDDNNESSSNTTVISDKQRRLLAKDAMIAQRSKKIQPTAKVVYIQRRSWRQYVGQLAPSSVDPQSSSTQNVFVILMDKCLPKVRIRTRRAAELLDKRIVISIDSWPTTHKYPLGHFVRDLGTIESAQAETEALLLEHDVEYRPFSKKVLECLPAEGHDWKAPTKLDDPEAVSKDPLLTKRKDLRDKLICSIDPPGCVDIDDALHAKKLPNGNWEVGVHIADVTHFVKPGTALDAEGAARGTSVYLVDKRIDMLPMLLGTDLCSLKPYVDRFAFSVIWELDDSANIVNVNFMKSVIRSREAFSYEQAQLRIDDKTQNDELTMGMRALLKLSVKLKQKRLEAGALNLASPEVKVHMDSETSDPNEVEIKKLLATNSLVEEFMLLANISVARKIYDAFPQTAMLRRHAAPPSTNFEILNEMLNTRKNMSISLESSKALADSLDRCVDPEDPYFNTLVRIMSTRCMMAAQYFYSGAYSYPDFRHYGLAVDIYTHFTSPIRRYCDVVAHRQLAGAIGYEPLSLTHRDKNKMDMICRNINRKHRNAQFAGRASIEYYVGQVMRNNESTETGYVIKVFNNGIVVLVPKFGVEGLIRLDNLTEDPNSAAFDEVEYKLTFVPTNSDKPRDVYVFDKVEVQVRSVMDPITSKRKAELLLK | failed |
| MSLTTMLEVAKRAGVSKATVSRVLSGNGYVSQETKDRVFQAVEESGYRPNLLARNLSAKSTQTLGLVVTNTLYHGIYFSELLFHAARMAEEKGRQLLLADGKHSAEEERQAIQYLLDLRCDAIMIYPRFLSVDEIDDIIDAHSQPIMVLNRRLRKNSSHSVWCDHKQTSFNAVAELINAGHQEIAFLTGSMDSPTSIERLAGYKDALAQHGIALNEKLIANGKWTPASGAEGVEMLLERGAKFSALVASNDDMAIGAMKALHERGVAVPEQVSVIGFDDIAIAPYTVPALSSVKIPVTEMIQEIIGRLIFMLDGGDFSPPKTFSGKLIRRDSLIAPSREGHHHHHH | not failed |
| CPLLLRVFTTNNGRHHRMDEFSRGNVPSSELQIYTWMDATLKELTSLVKEVYPEARKKGTHFNFAIVFTDVKRPGYRVKEIGSTMSGRKGTDDSMTLQSQKFQIGDYLDIAIT | failed |
| MRSATDLLDELNAVDESARIEAKRASDMGKSVMETVIAFANEPGLDGGYLLLGVDWAINDKGDTVYRPVGLPDPDKVQRDLASQCASMLNVALRPEMQLEQVGGKTLLVVYVPEADVTHKPIYKKATGLPGGAYRRIGSSDQRCVDEDLWVLRGLEHHHHHH | not failed |
| MFDVAVFGSLFLTLFVIMDPPGITPIFLALTAGRPAKVQKRMAFQAVCVAGGVITVFGLLGHQILDYLHVSVPALMIAGGLLLLLIALDLLTGKTDEPKQTKDVNVALVPLGMPLLAGPGAIVSVILAVQKAGSVATQVSVWAAILAIHVVLWVVMRYSLLIIRVIKDGGVVLVTRLAGMMLSAIAVQQIINGVTQVIRGS | failed |
| MMFGAIIQQIVLGISLAAPVGPINIEMLKRGIERGFWHAWVVGIGGMTADILFMLLIYFGLSSLFMYTYVQAFMYCTGFFLLFYLGFQSVKQGISQSNMEYKKEEVGGLKQSFMAGFLIAISNPLNLVFWFGIYGSTLSSLLTKVTKQEAFLYSLCIIVGIILWNVNIAFSVHFGRTLLKQKALGYITAGAGIILVGYSIHFAYKALQLFT | failed |
| TSSLQGNLLISVPRDFGLLFIAPNLPTFMAKHPHLHIEVEFNDKKIDLLSEGYDLALRIGYMEDSSLVSRKIGTTTVHFAASPNYLETNGIPQTPDDLEHHNGLLYKNAMNQVNWVGSRINQTQRFKIQSKVVSNSGFALL | failed |
| MKNIVVIGAGNIGSAIAWMLAATGDYRITVADRSADQLANVPAHERVDTEIVDIADRPALEALLKGKFAVLSAAPFHLTAGIAEAAVAVGTHYLDLTEDVESTRKVKALAETAESALIPQCGLAPGFISIVAADLAARFDKLDSVRMRVGALPQYPSNALNYNLTWSTDGLINEYIEPCEAIVEGRLTAVPALEEREEFSLDGVTYEAFNTSGGLGTLCATLEGKVRTMNYRTIRYPGHVAIMKALLNDLNLRNRRDVLKDLFENALPGTMQDVVIVFVTVCGTRNGRFLQETYANKVYAGPVSGRMMSAIQITTAAGICTVLDLLAEGSLPQKGFVRQEEVALPKFLENRFGRYYGAHEPLARVG | failed |
| MEKYEELFARIKEKAKLIDEKIFELIPEKDPRVLYEAARHYPLAGGKRVRPFVVLTSTEAVGGDPLRAIYPAVAIELIHNYSLVHDDIMDMDETRRGKPTVHRIWGVNMAILAGDLLFSKAFEAVARAEIPPEKKARVLEVIVKASNELCEGQARDLEFEKKSTVTIEEYMEMISGKTGALFEASAKVGGIIGTDNEEYIKALSSWGRNVGIAFQIWDDVLDLIADEKKLGKPVGSDIRKGKKTLIVAHFFENADEKDKQRFLKIFGKYAGDVKGRGIIEEDIKSDVMEAIDLLKKYGSIDYAAEIAKDMIKKANEALRILPKSKARMDLELLAKFIVEREY | not failed |
| MKEGKWFASANNQNKFLDPRERGNILNYLKVCLLLARAVRRMHAAGLCHSDLSYKNVLIDPEQGHACIIDVDGLVVPGKFPPDVVGTPDFIAPEVVKTSHLLKEDPQRILPNITTDRHALSVLIYMYLFYRHPLRGGKIHDMDDEVRDESLAMGERALFIEHPTDRSNAVKLNQVKPSSLPWADPQKVPYTIMGPYLTQLFEKAFIDGLHDPSKRPTADEWETALVKTVDLIQPCQNTACEQKWYVFSGKTKPVCPYCLEHHHHHH | failed |
| RGRYRQYNSEILEEAISVVMSGKMSVSKAQSIYGIPHSTLEYKVKERLGTLKNPPKKKMKLMR | not failed |
| MQGIKNLTHGPINRQLFNLAMPIMATSFIQMAYSLTDMAWVGRLGSEAVAAIGSVGILTWMSGSISLLNKVGSEVSVGQSIGAQNQEDARQFASHNITIALIISICWGGLLFMFASPIIRIYELEEHITANAIEYLRIISTALPFIFLSAAFTGIYNAAGRSKIPFYISGTGLIMNIILDPLFIFGFGLGTNGAAYATWLSQATVFAIFIYQLRFRKDALLGGFPFFSRLKKKYTRRILKLGLPVATLNTLFAFVNMFLCRTASEQGGHIGLMTFTTGGQIEAITWNTSQGFSTALSAFIAQNFAAGRIERVLKAWHTTLWMTGIFGTFCTLLFVFYGNEVFSIFVPEQAAYEAGGVFLRIDGYSQLFMMLEITMQGVFYGIGRTVPPAIVSIVCNYMRIPLAILFVRMGMGVEGIWWAVCVTTIAKGLILLGWFTMIRKKCLNLPSVSTR | failed |
| MVPQTGRAARATRESGRQTRDALFTAATELFLEHGEGVPITQICAAAGAHPNQVTYYYGSKERLFVEVACAAVLRAGKRAEDDAATAETVGDYTEKLVGSLLGPGAPSVELFTSAMLMTGRRSELRDLITDTLRTLHSSGEVALIRTLMRTGWQLRAGIDVESKAFWSAIFGLVIQKTATGESFGYSLEEAVAVIFANLQIPETVRNTSID | not failed |
| MPQTSSVFRYPGGKTQLYSFVHHLLKINSITDISLEPFAGGAGIPLKLLIDNRINTVWINDYDKAIYSVWDTILNDPVALISLIESVPFDYHSGHKISPEFSISFWKKQKDIYLNNKNHQHSIELAFSTLFLNRTNTSGIITAGPLGGFKQNRKTQIYARFNKETLINKINLIHSFKSQIKLTRLNTLDMIPKIRNSVDPKNSFIFFDPPYFEQGKELYYSSFNEQGHKELANGILSLKQYHWITTYDTAPQIQEDYTMAKQKYEYSLNYSANNKNRGKTAEFMFASPVTRLSSFEKVDLTPLA | failed |
| MTVGIIGAGNIGGAFATALGKAGIEAVIANSRGPESLTALVSKLGSTIRAGSVPEAAAQAIVLVAVPWSKIPGALAGLNFGDRIVIDANNSIEAPLYRPADLGGRTSTDIFTALVPGARVVKAFNHLTPKQLSGDPHSEGGRRVLFYSGDDMRAKAEVGAIIDRIGFFGIDLGGLPVGSQLLQFPGGPLPALNLVKFD | failed |
| SVMCAAIAAGAFAQGQGQGLAGINEATSLMTSYFDPATKLCYAIGAVLGLVGGIKTYGKFSSGDPDTSKTAASWFFACIFLIVAATILRSFF | failed |
| MKEKENIQKIIIAMIQTVVVYFSASLTLTLITPNFKSNKDLLFVLLIHYIVFYLSDFYRDFWSRGYLEEFKMVLKYSFYYIFISSSLFFIFKNSFTTTRLSFFTFIAMNSILLYLLNSFLKYYRKYSYAKFSRDTKVVLITNKDSLSKMTFRNKYDHNYIAVCILDSSEKDCYDLKHNSLRIINKDALTSELTCLTVDQAFINIPIELFGKYQIQDIINDIEAMGVIVNVNVEALSFDNIGEKRIQTFEGYSVITYSMKFYKYSHLIAKRFLDITGAIIGLLICGIVAIFLVPQIRKDGGPAIFSQNRVGRNGRIFRFYKFRSMRVDAEQIKKDLLVHNQMTGLMFKLDDDPRITKIGKFIRKTSIDELPQFYNVLKGDMSLVGTRPPTVDEYEKYNSTQKRRLSFKPGITGLWQISGRNNITDFDEIVKLDVQYINEWSIWSDIKIILLTLKVVLLGTGAK | failed |
| MEGISIYTSDNYTEEMGSGDYDSMKEPCFREENANFNKIFLPTIYSIIFLTGIVGNGLVILVMGYQKKLRSMTDKYRLHLSVADLLFVITLPFWAVDAVANWYFGNFLCKAVHVIYTVNLYSSVLILAFISLDRYLAIVHATNSQRPRKLLAEKVVYVGVWIPALLLTIPDFIFANVSEADDRYICDRFYPNDLWVVVFQFQHIMVGLILPGIVILSCYCIIISKLSHSKGHQKRKALKTTVILILAFFACWLPYYIGISIDSFILLEIIKQGCEFENTVHKWISITEALAFFHCCLNPILYAFLGAKFKTSAQHALTSVSRGSSLKILSKGKRGGHSSVSTESESSSFHSS | not failed |
| MFERFTDRARRVIVLAQEEARMLNHNYIGTEHILLGLIHEGEGVAAKALESMGISLDAVRQEVEEIIGQGSQPTTGHIPFTPRAKKVLELSLREGLQMGHKYIGTEFLLLGLIREGEGVAAQVLVKLGADLPRVRQQVIQLLS | not failed |
| MQLPLHQVAQPAFYISVVPDMVGGRLSSHDRDLLGLAHQLAGQDGAVLAVVFGEHKESAFATAGVDRLLVLQGSEFEGYAPEQRVQGLRAVDNQFSPRHWLLPDSRTGGGELGRRFAAALGERPATRVWQVKDGQCIGRAGAGLQDLARPVVRLILAAAECAEPVSETRHEALPVELSTSVARSLARIEDLGAVAVDPAAIPMAEAEFIFSGGNGVKDWPLFHQTAAALGATEGASRVAVDDGFMARDRQVGASGIWVTARVYVAVGISGAIQHLQGIGACDKVVAINLDPGCDMIKRADLSVIGDSAEILKALIAAVAAYRNDAKRDAA | failed |
| MLPIASGNDDRNLIRYVDGGRFDEIMLTGDLTGLSSFLTNAGPNARDDFDLTVLMRAAEAGNLMVVARLLDLGANPRLTNPRGVTALHIAAIAGDDGIVECLIDAGAEVDAVDDQGRTPLWNAAAHHLPDSAVVDVLLRAGANVNLRDCNGVSPEDML | failed |
| MSDEWIKIFESDFYVREMIKVWDEGEKWANWIDEVVSKYKLEKKVLDIPCGIGRVSYFLANRGYKVTGIDISERMISMARSNIQNGKFIVGDMRKIKEIIGNEKYDLVINIYNSLGYYSEEDDLKILESLRDSTRKIVVINLDNRDYIIYNRPNEYYTYIPPYLVYSKVEFEQETSRLKIYRKYYLNDKEVGEMIYEQRLYSIHEILALLKKAGLQPIEVLSGYSWKKFSIMDPEMTIIATPA | failed |
